From patent US20240101670A1

Target: Human C1q (human) (UniProt P02745)
Assay: ELISA: antibody coated on the plate at the concentration shown, human C1q added at 10 ug/mL, detection with sheep anti-human C1q-HRP, OD450

Sequence of Human C1q (human) (P02745 23-245 limits assumed, chain 1 of 3): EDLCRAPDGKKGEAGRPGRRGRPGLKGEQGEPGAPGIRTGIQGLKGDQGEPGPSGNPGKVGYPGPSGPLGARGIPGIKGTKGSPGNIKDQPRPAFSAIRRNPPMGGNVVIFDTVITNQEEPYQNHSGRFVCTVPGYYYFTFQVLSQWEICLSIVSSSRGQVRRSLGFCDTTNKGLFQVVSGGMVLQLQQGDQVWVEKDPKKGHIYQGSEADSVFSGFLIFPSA
Sequence of Human C1q (human) (P02746 28-253 limits assumed, chain 2 of 3, further chain): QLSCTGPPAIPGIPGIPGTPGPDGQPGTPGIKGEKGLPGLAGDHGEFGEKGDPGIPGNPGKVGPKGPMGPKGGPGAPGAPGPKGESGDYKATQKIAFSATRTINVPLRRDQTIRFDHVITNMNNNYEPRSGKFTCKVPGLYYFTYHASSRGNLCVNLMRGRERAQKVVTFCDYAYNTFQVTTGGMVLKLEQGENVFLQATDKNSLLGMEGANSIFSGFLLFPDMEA
Sequence of Human C1q (human) (P02747 29-245 limits assumed, chain 3 of 3, further chain): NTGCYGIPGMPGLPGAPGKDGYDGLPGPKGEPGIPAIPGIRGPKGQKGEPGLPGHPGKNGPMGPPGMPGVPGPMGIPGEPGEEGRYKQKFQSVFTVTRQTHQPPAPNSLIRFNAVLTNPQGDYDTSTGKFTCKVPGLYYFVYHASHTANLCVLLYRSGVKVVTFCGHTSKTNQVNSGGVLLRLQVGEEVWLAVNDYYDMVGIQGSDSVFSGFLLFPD

With human IgG1 isotype control antibody the EC50 (read off the curve) was 2 µg/mL.
